Patent US20080241867

Test system: hybrid GFP construct containing the protease cleavage sequence SVPSGCG (SEQ ID NO:21) followed by histidine residues

Substance | Micrograms of GFP Released by Protease (overnight, IMAC beads) [µg] | % GFP Released (60 minutes, 37° C.) [%] | µg GFP Released by Protease (60 minutes, 37° C.) [µg] | also measured
Elastase | 94 |  |  | release of GFP from beads, worded: The most effective enzyme was elastase, with positive results apparent within five minutes after adding the enzyme
Chymotrypsin | 47 | 11 | 10.6 | 
Pepsin |  |  |  | Micrograms of GFP Released by Protease (overnight, IMAC beads, pH 8.0): 0 µg
Crude Bromelain | 86 |  |  | 
Trypsin |  | 4.6 | 4.07 | Micrograms of GFP Released by Protease (overnight, IMAC beads); Trypsin (Sample 1): 9 µg; Micrograms of GFP Released by Protease (overnight, IMAC beads); Trypsin (Sample 2): 56 µg
